In patent US20130164251A1 (JIANGSU T MAB BIOPHARMA, published 2013):
Where two headings read alike, the source gives them in different places.

T1: G-CSF receptor G-CSFR (R & D company, Item No. 381GR/CF) (UniProt Q99062 25-621, limits assumed)
T1 construct: Bought reagent, amine-coupled to a CM5 chip; also called the receptor
T1 sequence (looked up): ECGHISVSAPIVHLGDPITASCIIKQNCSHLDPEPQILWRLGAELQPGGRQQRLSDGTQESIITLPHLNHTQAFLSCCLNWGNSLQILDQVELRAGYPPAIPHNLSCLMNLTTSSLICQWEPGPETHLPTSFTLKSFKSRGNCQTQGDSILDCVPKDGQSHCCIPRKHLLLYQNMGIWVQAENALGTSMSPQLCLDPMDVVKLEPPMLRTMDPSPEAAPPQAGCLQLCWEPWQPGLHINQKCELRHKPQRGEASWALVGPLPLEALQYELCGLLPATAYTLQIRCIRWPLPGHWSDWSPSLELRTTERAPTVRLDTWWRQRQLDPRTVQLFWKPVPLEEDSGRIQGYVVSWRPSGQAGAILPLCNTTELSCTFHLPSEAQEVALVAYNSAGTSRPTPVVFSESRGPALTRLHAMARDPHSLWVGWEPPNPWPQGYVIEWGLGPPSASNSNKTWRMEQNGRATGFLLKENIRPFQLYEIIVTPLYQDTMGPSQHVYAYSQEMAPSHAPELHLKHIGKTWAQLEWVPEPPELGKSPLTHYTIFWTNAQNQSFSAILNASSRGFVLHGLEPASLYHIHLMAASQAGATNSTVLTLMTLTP


Columns and labels:
Assay in all cases: SPR (Biacore 3000), G-CSFR amine-coupled to CM5 chip, 1:1 Langmuir fit
[1] = biological target: G-CSF receptor G-CSFR (R & D company, Item No. 381GR/CF) (UniProt Q99062)
[2] = biological target: T1, G-CSF receptor G-CSFR (R & D company, …)
Procedure: (§1) The receptor G-CSFR (R & D company, Item No. 381GR/CF) was coupled to FC₄ cell of a CM5 chip by using an amine coupling method in Biacore® 3000 control software Wizard. HBS-P buffer (10 mM HEPES, 150 mM NaCl, and 0.005% (v/v) surfactant P20, pH 7.4) was used as the working buffer, and 1 mg/mL of G-CSFR was diluted with 10 mM NaAC (pH 4.5) to a final concentration of 20 μg/mL. A 1:1 mixture of 0.2 M EDC and 50 mM NHS was injected by flowing through the surface of the chip at a rate of 10 μL/min, G-CSFR solution was injected, then 1 M ethanolamine (pH 8.5) was injected for 7 min to block the activated chip surface.
(§2) rHSA/mG-CSF and G-CSF standards were quantitatively diluted with a HBS-P buffer, and a kinetic test was conducted following a kinetic analysis Wizard in Biacore® 3000 control software. All the samples were injected at the flow rate of 30 μL/min, and the injection time of 3 min. After 5 min of disassociation, 50 mM NaOH, 1 M NaCL, and HBS-P buffer were respectively injected for 15 s and 60 s at a flow rate of 100 μL/min for regeneration. The obtained data was fitted using a 1:1 Langmuir binding model in Biacore 3000 analysis software, to obtain exact kinetic constants: […]

[3] = biological target: T1, G-CSF receptor G-CSFR (R & D company, …); remark: listed apart in the source
Procedure: as §1, §2

Row | Molecule | Kd [1] | Kd [2] | Kd [3]
1 | rHSA/G-CSF mutant L19I (from UniProt P09919 31-207) (ligand) | 11.2 nM |  | 
2 | recombinant human serum albumin-granulocyte-colony stimulating factor fusion protein (rHSA/G-CSF) (ligand) | 1.3 nM |  | 
3 | human granulocyte-colony stimulating factor (G-CSF) (ligand, also called G-CSF standards) TPLGPASSLPQSFLLKCLEQVRKIQGDGAALQEKLCATYKLCHPEELVLLGHSLGIPWAPLSSCPSQALQLAGCLSQLHSGLFLYQGLLQALEGISPELGPTLDTLQLDVADFATTIWQQMEELGMAPALQPTQGAMPAFASAFQRRAGGVLVASHLQSFLEVSYRVLRHLAQP |  | 0.3 nM | 0.3 nM
